Target: T1, His-RAX WT (PACT) (Mus musculus (cDNA from L929 cells), UniProt Q9WTX2 1-313)
T1 sequence: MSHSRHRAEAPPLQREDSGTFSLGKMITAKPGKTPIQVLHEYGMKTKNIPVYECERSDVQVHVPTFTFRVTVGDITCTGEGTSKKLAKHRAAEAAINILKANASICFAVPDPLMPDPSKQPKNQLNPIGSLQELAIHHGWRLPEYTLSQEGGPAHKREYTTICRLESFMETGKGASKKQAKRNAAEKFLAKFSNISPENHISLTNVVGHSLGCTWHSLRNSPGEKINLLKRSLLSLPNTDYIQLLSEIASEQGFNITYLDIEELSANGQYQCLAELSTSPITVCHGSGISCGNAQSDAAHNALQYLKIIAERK
Test: EMSA; 1 uM His-RAX; 25 fmol probe; competed by poly(I:C); 20 mM Tris pH 7.5, 50 mM KCl, 2 mM MgCl2, 2 mM MnCl2, 5% glycerol; EMSA 15 min at room temperature, 5% acrylamide gel in 0.25x TBE run cold
Conditions: protein: recombinant; blunt

B1: 30-bp dsRNA probe (dsRNA)
RNA 1: GGGAACAAAAGCUGGGUACCGGGCCCCCCC
RNA 2: GGGGGGGCCCGGUACCCAGCUUUUGUUCCC
Does B1 bind?
Result: binds
